# Measured values from article PMC8635412.
# Columns and labels:
# [1] = target: Biotinylated UBE3A HECT domain, wild type (METRIS) (human); experiment: METRIS (mechanically transduced immunosorbent assay, rolling magnetic probes); biotinylated ubiquitin on streptavidin-coated ferromagnetic beads rolling on avidin-coated slides coated with biotinylated UBE3A HECT domain; rotating magnetic field 1 Hz for 5 s; read-out rolling parameter (dimensionless)
# [2] = target: Biotinylated UBE3A HECT domain Q588E (METRIS) (human); experiment: as above
rolling parameter (ζ) [1],rolling parameter (ζ) [2],Substance
0.178,,Biotinylated Cys-ubiquitin (ubiquitin variant with an N-terminal cysteine) on streptavidin-coated ferromagnetic particles (from UniProt P0CG48 1-76)
,0.247,Biotinylated Cys-ubiquitin (ubiquitin variant with an N-terminal cysteine) on streptavidin-coated ferromagnetic particles (from UniProt P0CG48 1-76) (natural protein)
